Like-named read-outs stand apart in the source and are kept apart here.
Columns and labels:
Assay in all cases: crystal structure
[1] = target: Teg12 (uncultured bacterium (DNA extracted directly from desert soil))
[2] = target: Teg12 (uncultured bacterium (DNA extracted directly from desert soil)); remark: listed apart in the source
[3] = target: Teg12 (uncultured bacterium (DNA extracted directly from desert soil)); remark: listed apart in the source

Measured: stoichiometry N

Teg12 (enzyme)
2: all assays above
